In the DeepSol protein solubility set:

Assay: soluble on expression in E. coli; label from the status in PepcDB or PDB records
In the case of “MGSDKIHHHHHHMVMEVIKVKYKAFDVGAVSYNTDTQMGSFEYFPSFIKTGIELSPIKMPLAKNIYSFPQLDQNTFKGLPGLIADSLPDDFGNAVMNAWIASQGKSTSDITPLQRLQYTGMRGMGALTYSPATKRKNLNASQPIHIESLVSIAQDVLDKRQQFSVDLENNGQEDKEAMMSLMSVGMSAGGARPKAVLAFNNDLTQVRSGQTDAPEGFTHYLMKFDGVSEHNKNQETFGDPMGYGAMEYTYHILAKECGIDMMPCHLLNEGKRRHFITERFDRNGNDKIHVQTLNGLEHVSYKQIGSYSYAELFNTARKLKLSPDDAMQLFKRMVFNVISRNHDDHAKNFGFMLDKDHKWQLAPAYDLAYSYKPDSHWVSKHWMTLNGKQDNFTRDDFYSFEKLSPIFSKRKIDDVLNQTIEAVSQWDKYAAEHAVPNSLIKEISQNLRLFL”, the “soluble on expression in E. coli” value is reported as “not soluble”. With “MGSDKIHHHHHHMVMGDITRIDTVQQYCDLFEVEALHPLVSVVNCYEVQPIRHSKKLYNIYAVLLKDTDCGTMNYGRSLYDYEKGSMLFIAPGQVMGSDDDGSLHQPAGWALMFHPELLRGTSLAHIIKEYSYFSYNANEALHLSEQERKVVIECINNVAEELRHPIDKHSRSLIIDTMKLLLDRCIRFYDRQFITRENANNDLLARFELLLNNYYHSALPTSKGIPTVQYCADQLCLSTNYFSDLVKKETGMSAIKHIQQKIMDIAKERIMNTQKSISQISDEMGFQYPQHFTRWFKKMEGCTPNEYRNEIIKQAIN” the “soluble on expression in E. coli” value was “not soluble”. For “MGSDKIHHHHHHMVNQNQWRQWGCKVIDIEKAALEHLYQFVDSDAFSQACELILQCKGKVIVMGMGKSGHIGNKISATLASTGTPAFFVHPGEASHGDLGALAKEDIILAISNSGESSEILTLLPVIQRMGVPVIAITGKPESNMAKLAKIHLCIQVPEEACPLGLAPTSSTTATLVMGDALAVALLQAKGFTQDDFALSHPGGSLGRKLLLKVSDVMHQDDRLPCVPHDICITEALYEISKKGLGMTAVVDANQCLVGIFTDGDLRRVIDAEVNLRTTPIEQVMTKNCVTTTAGILAAQALQVMESKNINGLIVVNEQQQPIGALNMLDMVKAGVI”, the “soluble on expression in E. coli” value was “not soluble”. With “MGSDKIHHHHHHMVREPASTLLPPTSPATPAPHRLLIGRRGMVPTGANVIWKIQSGLVRSSTWGEEGDMISLGLWGPGDLIGRPLSCLDPYELECLTAVEVVAVSDPALESHESLVRSLRYTERLLSITRLRRAEAKLASLLGWIGERFGQPGATGWEIDLRRIPLTHQVIAELSGSTRVTTTRLLGEFRQAGRIHRRDRALIVRYPETLYPPARLSA” the “soluble on expression in E. coli” value was “not soluble”. For “MGSDKIHHHHHHMVRLAVVGLGKMGLSHYAMINAHPDVKVEAVCDSTGYVLDVLNKYTGVRTYTDFDVMLRDIELDAVIIATPSRSHGQMVEVALNENLHVFCEKPFCLDITEGERLARIAAERGLVNQVGYHNRFVGAFQEVKRLLDAGAIGAVTHVLAEAYGPVVLKPKGSTWRTQRTEGGGCLYDYAAHPINLVNWYLGAPQSVGGSVLNKIFSKDTEDEVFSTLYYEEGKSVQISVNWSDESYRKMTTKVTIWGTQGRIYADRQECQVYIRDGVNIPAGYQRGWNVRYTTDLTEAVWFYLRGEEYSAQLDYFVRCIEEKEGGGNINSFEEAVITDRVMSMMVADAEKRPPVTSGIAPRQAPGKKFGLLFGGRKAVS”, the “soluble on expression in E. coli” value was “not soluble”. With “MGSDKIHHHHHHMVSRRISEIPISKTMELDAKAKALIKKGEDVINLTAGEPDFPTPEPVVEEAVRFLQKGEVKYTDPRGIYELREGIAKRIGERYKKDISPDQVVVTNGAKQALFNAFMALLDPGDEVIVFSPVWVSYIPQIILAGGTVNVVETFMSKNFQPSLEEVEGLLVGKTKAVLINSPNNPTGVVYRREFLEGLVRLAKKRNFYIISDEVYDSLVYTDEFTSILDVSEGFDRIVYINGFSKSHSMTGWRVGYLISSEKVATAVSKIQSHTTSCINTVAQYAALKALEVDNSYMVQTFKERKNFVVERLKKMGVKFVEPEGAFYLFFKVRGDDVKFCERLLEEKKVALVPGSAFLKPGFVRLSFATSIERLTEALDRIEDFLNSR” the “soluble on expression in E. coli” value was “soluble”. With “MGSDKIHHHHHHMVTIQNDRFTATINEVGAELTHLVDQASHRDLIWNNDLWPKHAPVLFPAIGRSNEDSYLIDGQRYEMPQHGFVSGETFMIVDQTPTAVTLSLTANAATRVYYPFYFELQVTFTLVATGLNLTFSVQNHGQQDLSYSLGSHPAFNVPFEAGEAFTDYELVLDPAPTDLQQFEIVKTPNPYRSGKELPVTTDKGVIKLNYPMFDAGLIILKAPNLAHLTLQSTKSKHSISLNLDDFDYVTLWTKEGAQAPFLCLEPFNGLPDVAGDLRELATKEGNHHVAVGQSETMAYTITVD” the “soluble on expression in E. coli” value was “not soluble”. With “MGSDKIHHHHHHMVTIVPINEEERASIINGLKSSVPATKLITLKKIVDLTVLRPESLQYMEMTDKMAIQRIVSGIERIMEYDIDEVLKREASIALEKLKVTLGSKFVQNLFYCQNCNGVVDIGWENCANCGASLAEMEFAETKPCPNCNKHTSENWNNCAHCGFQLIKEEDKIQKCSGCKREVDPTWMVCPYCGTRLKVSKK” the “soluble on expression in E. coli” value was “not soluble”. With “MGSDKIHHHHHHMVVASVVLWGKHVGAVLWNYDKGYATFEFEAGFLKSGLDVAPLTMPLANVSKGEIFQFAQLPKETFHGLPGLLSDALPDRFGNQLIDLWLASQGRDKASMSPVERLCYLGTRGMGALEFEPTVRNEKEPSKGLEIGALVELSKKALSMKASLDSHFSKEDAETFADIIKVGTSAGGARAKAVIAYNEQTGEVRSGQLHSPAGFEHWLIKFDGVTNEQLGDPKGYGRIEYAYYKMAIDADIIMMPSLLLEEGGRAHFMTKRFDRIVNNEKLHMQTLCGLCHFDYNNPEAYAYEQAFQAMRQLRLPYTDAEQLYIRMVFNVVARNQDDHTKNISFLMDKTGNWSLSPAYDVSYAYNPENKWIAKHQLAVNGKRENIMREDLLSVAKQMNIKKPKEIIEKITAVVSNWEGYAQEAGVPKNQITALGKTHLLKM” the “soluble on expression in E. coli” value was “not soluble”. In the case of “MGSDKIHHHHHHMVVKIGLLGFGTVASGVPFLLEENQEKIEKAAHDSIEVAKVLVKDEAEKDRLLAAGHDYHFVTNIDDILADEDIAIVVELMGRIEPAKTFITHALEAGKHIVTANKDLLAVHGSELRALAEEKGLALYYEAAVAGGIPILRTLVNSLAADKVTRILGVLNGTSNFMLTKMVDEGWTYEKALQTAQELGYAESDPTNDVEGIDAAYKAVILSQFAFGMTVDFEHVAHKGISNITPEDVAVAQELGYVIKLVGDIQETTSGIAAEVSPTFLPKNHPLASVNGVMNAVFVESIGIGQSMYYGPGAGQKPTATSVMADIIRIVRRLKDNTIGKAFNEYSRSLQLAAPSDVKSEYYFSIDAPDKNGKMLRLAEIFNSEEISFKQILQQAADGETARLVIVTHEMSKTQLENVTDKLSKETDFTVLNTFKVLGE”, the “soluble on expression in E. coli” value is reported as “not soluble”. In the case of “MGSDKIHHHHHHMYEEWKIVKREAPILGNDQLIENIWKMKREDSPYDIISLHKVNLIGGGNDAVLILPGTWSSGEQLVTISWNGVHYTIPDYRKSIVLYLARNGFNVYTIDYRTHYVPPFLKDRQLSFTANWGWSTWISDIKEVVSFIKRDSGQERIYLAGESFGGIAALNYSSLYWKNDIKGLILLDGGPTKHGIRPKFYTPEVNSIEEMEAKGIYVIPSRGGPNNPIWSYALANPDMPSPDPKYKSISDFLMDSLYVTGSANPYDYPYSKKEDMFPILASFDPYWPYRLSLERDLKFDYEGILVPTIAFVSERFGIQIFDSKILPSNSEIILLKGYGHLDVYTGENSEKDVNSVVLKWLSQQR”, the “soluble on expression in E. coli” value is reported as “not soluble”. For “MGSDKIHHHHHHMYKVIIIDDEKAAIETLRRDLEVQTDLEIKGTAGNGAKGKKLIMDIHPDLLFLDIELPDIQGIRLLSEIREQVLWDMKVVFYTAYDKYLLQALRESAFDYLLKPYDIEELNLIIERYRKTMASARPLPSFASAVGTLMPGRDLFMISTVTGFRFLRLEEIGYFEYLKDKRLWQVELFNQTKLCLKKNTTAGDIIGYSDAFVQISQSAIININYLAMIKSKQCLLYPPFSDKEDLIISRGFLKELQERFCII”, the “soluble on expression in E. coli” value was “not soluble”. In the case of “MGSDKIHHHHHHMYNYPFENFDFIDFWDDDEYAMNEYIGAPPTEEMIEETERELGYKLPESYIWLMKQHNGGIPFNVCFPCDEPTSWADDHVAITGIMGVDKDKIYSLCGQLGSRFMIEEWGYPDIGVAICDCPSVGHDMIFLDYRECGPQGEPKVVHVDQEDDYYVTFLADNFEEFIRGLVNEEVFDTSEEDERMELEKVRNAAFSPLLSDLCAKCDHPVDTERWIRKISEEIVTDKGFFALHADERSYLLYDIQLWLYTNVYPDTTEEDYLSAYKKIIALDGEFSTGGYASDFVTDWLTRRKESGMVTCNDGILSMAAGTKEALLANRELISNKEQ”, the “soluble on expression in E. coli” value is reported as “not soluble”. For “MGSDKIHHHHHHMYQQVIDFIEHQKKIGALHPGDKLPSLRKLSRQFDISVPTVKQAYIELERQGQVCAKPQSGYYLQAMQARTLKPRPAKWAQCDPVEVQGRSMIEQVHAAVHLPNTVALGISNPIQAHPPDKALARLMRSVLSKVSEKAVSYGPVTGDAKLRMQLAFRYQDQGVETNPDDIVITNGAQEALSIALQCVAKRGDIIAIESPCFFGMIELIETLGMKALEVYTCTEDGVCVEDLAEAINQHDITACLFSTAINNPLGSMKTDEQRQAMVSLLEQHDIPLIEDEVYSEIYFTDNKPKPAQLYSEKGLVMTCSSFSKTAAPGYRIGWLLPGKFEEQAKRIKRAQSASTPMLQQWTLNEYLLSGDYDRHLCVLRKTLAYNCERMRALIAEHFPPEVCISKPLGGSVLWLRCQSHVKTGEFFQQALTQGVSFAPGAIFSPSGKYQNYMRVSYGVQWGEDVETAVKVLGQLVYEYTSKQKTAQLMEKQ”, the “soluble on expression in E. coli” value was “not soluble”. In the case of “MGSDKIHHHHHHMYRLSQYETPLFTALVEHSKRNPIQFHIPGHKKGQGMDPEFREFIGHNALAIDLINIAPLDDLHHPKGMIKEAQDLAAAAFGADHTFFSIQGTSGAIMTMVMSVCGPGDKILVPRNVHKSVMSAIIFSGAKPIFMHPEIDPKLGISHGITIQSVKKALEEHSDAKGLLVINPTYFGFAADLEQIVQLAHSYDIPVLVDEAHGVHIHFHDELPMSAMQAGADMAATSVHKLGGSLTQSSILNVKEGLVNVKHVQSIISMLTTTSTSYILLASLDVARKRLATEGTALIEQTIQLAEQVRDAINDIEHLYCPGKEMLGTDATFNYDPTKIIVSVKDLGITGHQAEVWLREQYNIEVELSDLYNILCLVTFGDTESETNTLIAALQDLSATFKNKADKGVQVQVEIPEIPVLALSPRDAFYSETEVIPFENAAGRIIADFVMVYPPGIPIFTPGEIITQDNLEYIRKNLEAGLPVQGPEDMTLQTLRVIKEYKPIS”, the “soluble on expression in E. coli” value is reported as “not soluble”. With “MGSDKIHHHHHHMYSSAHSGSNESNLIAFPMAATSKTALLVQVDPFQSEVWSTALASQSITVIKEGADVDLSNMLGQMASAGLTLPDLIIVDMATEGMNPFAFCRFCREQHPSVKVLLTNSTQTQIAESEQRWAMSQGAQDLLPAFQTDSLLTDLLTALGRTSGVLGLPNLDQQALIQILPKLLEPKAEATETVALPAPSVAEPSVPPAPKAQRTYRGRPY” the “soluble on expression in E. coli” value was “not soluble”. For “MGSDKIHHHHHHMYTFQPGDHLVTNIDPLGLTEHHGLYVGHGHVIHLSKQGIIEEINLQQFAGGHSVRVKKSTLFPHQAIELARSQLGHSPYGVATNNCEHFVNECLEGSSTSNQVSNLTHIALQGSARAGLLGSSASKLATGTVANVVLTSTAIKMTGEYLGLPDNVNTLLGTPGDLVAKPAECLLKGTSQTLGETYTCLRQGEMTGAGIKLVTGSIETGLNTVLTTAEVGINGVKAGAELIADAWHWLRS”, the “soluble on expression in E. coli” value was “not soluble”. In the case of “MGSDKIHHHHHHMYYPYWQLGGTPWYQPPVQQQAPPYFQLPPLYTGPYSSPYQTSLVPYLTRPLRTPETPQDRTRTIMRDLMTAIDGEHRAIQCYQQMAQHAPTKKEQQQIEEIITDEQRHLRTFSALYQQITEKQHEPTTDQKISHNYEKALAFAVEEEQKTVDFYLEVADHAPNLQIREAFQRAAKDEQNHAVWFLYFLTKRLTSKL”, the “soluble on expression in E. coli” value is reported as “not soluble”.
